Measured values reported in patent publication US20160184455A1.

Molecular target: MaxiK channel of rat bladder detrusor smooth muscle (endogenous) (rat) (UniProt Q62976)
Assay: cell-based or functional assay

Sequence of UniProt Q62976 (Q62976 whole entry): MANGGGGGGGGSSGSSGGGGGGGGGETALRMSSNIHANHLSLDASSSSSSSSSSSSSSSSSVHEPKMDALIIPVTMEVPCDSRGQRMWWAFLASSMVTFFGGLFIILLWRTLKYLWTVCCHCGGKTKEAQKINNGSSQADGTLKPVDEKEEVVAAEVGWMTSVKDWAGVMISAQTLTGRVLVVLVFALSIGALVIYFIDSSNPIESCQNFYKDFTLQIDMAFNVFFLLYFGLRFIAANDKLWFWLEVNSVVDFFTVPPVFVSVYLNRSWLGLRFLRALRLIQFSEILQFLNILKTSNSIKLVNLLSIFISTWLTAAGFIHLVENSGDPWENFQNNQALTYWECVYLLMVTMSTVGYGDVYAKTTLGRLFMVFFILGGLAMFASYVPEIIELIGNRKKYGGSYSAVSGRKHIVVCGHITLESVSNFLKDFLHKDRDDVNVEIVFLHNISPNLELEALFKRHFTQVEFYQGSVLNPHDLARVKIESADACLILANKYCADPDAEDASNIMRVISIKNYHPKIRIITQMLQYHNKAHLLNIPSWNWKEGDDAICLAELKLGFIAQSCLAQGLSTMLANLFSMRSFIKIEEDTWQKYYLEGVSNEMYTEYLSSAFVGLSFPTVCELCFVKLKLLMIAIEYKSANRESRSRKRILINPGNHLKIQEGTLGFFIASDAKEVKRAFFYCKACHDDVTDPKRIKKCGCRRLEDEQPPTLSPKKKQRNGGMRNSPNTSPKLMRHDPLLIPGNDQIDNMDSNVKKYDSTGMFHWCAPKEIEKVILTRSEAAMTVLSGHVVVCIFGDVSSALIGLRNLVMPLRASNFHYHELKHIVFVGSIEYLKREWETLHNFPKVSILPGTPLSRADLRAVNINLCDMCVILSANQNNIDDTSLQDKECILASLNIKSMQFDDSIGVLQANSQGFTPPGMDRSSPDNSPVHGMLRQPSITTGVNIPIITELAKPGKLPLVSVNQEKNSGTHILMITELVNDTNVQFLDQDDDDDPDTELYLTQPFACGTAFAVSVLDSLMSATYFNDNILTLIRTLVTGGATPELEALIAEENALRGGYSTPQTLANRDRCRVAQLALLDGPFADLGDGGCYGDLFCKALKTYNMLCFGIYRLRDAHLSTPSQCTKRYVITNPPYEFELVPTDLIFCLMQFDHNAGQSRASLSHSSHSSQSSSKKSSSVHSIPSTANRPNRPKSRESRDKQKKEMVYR

## iberiotoxin (IBTX) (from UniProt P24663 1-37) (peptide)
  outward current in response to applied voltage, single whole cell patch clamp of detrusor cells before and after 300 nM IBTX: > 50%
